± gives the standard error. Variants at the floor of the assay were thinned out.
B1: glmS ribozyme (parent)
chain: AUAAAAGCGCCAGAACUACAGAAAUGUAGUUGACGAGGAGGAGGUUUAUCGAAUUUUCGGCGGAUGCCUCCAAA

Legend:
Conditions in all cases: with glucosamine-6-phosphate
glucosamine-6-phosphate [1] = variants of: B1; assay: self-cleavage kobs at 40 uM GlcN6P; higher = faster cleavage; RNA array
Procedure, shortened: (§1)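 Sequenced MiSeq chips were the platform: E. coli RNA polymerase transcribed barcoded ribozyme variants on them in situ, and a hybridised Cy3 probe tracked these at 37 °C. After glucosamine-6-phosphate (40 μM to 10 mM) in HEPES/KCl/Mg(OAc)2 buffer was flowed in, tiles were imaged over ~14 h. Signals normalised to baseline and to non-cleaving reference variants were reduced to per-tile medians and fit to one- or two-exponential decays to obtain kobs. kcat and KM were derived through weighted Michaelis–Menten fits across concentrations.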

glucosamine-6-phosphate [2] = variants of: B1; assay: self-cleavage kobs at 160 uM GlcN6P; higher = faster cleavage; RNA array
Procedure, shortened: as §1

glucosamine-6-phosphate [3] = variants of: B1; assay: self-cleavage kobs at 10000 uM GlcN6P; higher = faster cleavage; RNA array
Procedure, shortened: as §1

glucosamine-6-phosphate [4] = variants of: B1; assay: self-cleavage kobs at 640 uM GlcN6P; higher = faster cleavage; RNA array
Procedure, shortened: as §1

glucosamine-6-phosphate [5] = variants of: B1; assay: self-cleavage kobs at 2500 uM GlcN6P; higher = faster cleavage; RNA array
Procedure, shortened: as §1

Variant	self-cleavage kobs at 40 uM GlcN6P (glucosamine-6-phosphate [1])	self-cleavage kobs at 160 uM GlcN6P (glucosamine-6-phosphate [2])	self-cleavage kobs at 10000 uM GlcN6P (glucosamine-6-phosphate [3])	self-cleavage kobs at 640 uM GlcN6P (glucosamine-6-phosphate [4])	self-cleavage kobs at 2500 uM GlcN6P (glucosamine-6-phosphate [5])
G13U G37A	< 1e-05 s⁻¹	< 1e-05 s⁻¹	6.96e-05 ± 8.5e-06 s⁻¹		
C50G U57A C58G	8.29e-05 ± 2.4e-05 s⁻¹	0.000517 ± 0.00012 s⁻¹		0.000297 ± 9.4e-05 s⁻¹	7.43e-05 ± 2.1e-05 s⁻¹
G9C G29C C67U	< 1e-05 s⁻¹		< 1e-05 s⁻¹	< 1e-05 s⁻¹	
C16U G40A	0.000204 ± 2e-05 s⁻¹	0.000448 ± 7e-05 s⁻¹	0.00622 ± 0.00083 s⁻¹	0.000996 ± 0.00017 s⁻¹	0.00398 ± 0.00098 s⁻¹
C8U G41A G59C	< 1e-05 s⁻¹		< 1e-05 s⁻¹		
A39G U65G C67G	0.000107 ± 2.4e-05 s⁻¹		0.00497 ± 0.0012 s⁻¹		
G37C U55C	< 1e-05 s⁻¹		5.46e-05 ± 9.7e-06 s⁻¹		
A14G G41A C67U	< 1e-05 s⁻¹				
C10G G35A	< 1e-05 s⁻¹	< 1e-05 s⁻¹		< 1e-05 s⁻¹	
C10G G35U A39U	< 1e-05 s⁻¹				
C50G G51A G59A	< 1e-05 s⁻¹				
A6C A52C	< 1e-05 s⁻¹	< 1e-05 s⁻¹	< 1e-05 s⁻¹	< 1e-05 s⁻¹	< 1e-05 s⁻¹
C8U G44C A53U G63U C68G	< 1e-05 s⁻¹		< 1e-05 s⁻¹		
G44U G59U U65G	< 1e-05 s⁻¹				< 1e-05 s⁻¹
A12U A42G U46G G63U	< 1e-05 s⁻¹		< 1e-05 s⁻¹		
U46G U57A	< 1e-05 s⁻¹		5.59e-05 ± 7.8e-06 s⁻¹		
A6G A12G G66U	< 1e-05 s⁻¹				
A15C A33C A64U	< 1e-05 s⁻¹		< 1e-05 s⁻¹		
G40U C61A G63C	< 1e-05 s⁻¹	< 1e-05 s⁻¹			< 1e-05 s⁻¹
U31G A53U C58G G60A	< 1e-05 s⁻¹		< 1e-05 s⁻¹		
A15G G38U U47A C68G	9.09e-05 ± 3.3e-05 s⁻¹				
A14U U30G C34U G40A A52G C68G	< 1e-05 s⁻¹		< 1e-05 s⁻¹		
C10G G44U C68U C70U	< 1e-05 s⁻¹		< 1e-05 s⁻¹		
U30G G59C	< 1e-05 s⁻¹		< 1e-05 s⁻¹	< 1e-05 s⁻¹	
C11G G32C G38A A42C G60C	< 1e-05 s⁻¹				< 1e-05 s⁻¹
C11G G43C A64U	< 1e-05 s⁻¹		< 1e-05 s⁻¹		

Variant	self-cleavage kobs at 40 uM GlcN6P (glucosamine-6-phosphate [1])	self-cleavage kobs at 160 uM GlcN6P (glucosamine-6-phosphate [2])	self-cleavage kobs at 10000 uM GlcN6P (glucosamine-6-phosphate [3])	self-cleavage kobs at 640 uM GlcN6P (glucosamine-6-phosphate [4])	self-cleavage kobs at 2500 uM GlcN6P (glucosamine-6-phosphate [5])
C8U C11U C58A C67G	0.00018 ± 3.1e-05 s⁻¹		0.000209 ± 5.4e-05 s⁻¹	0.00126 ± 0.00052 s⁻¹	0.000112 ± 4.5e-05 s⁻¹
G38A A42U C70A	< 1e-05 s⁻¹		< 1e-05 s⁻¹		< 1e-05 s⁻¹
C10G U30G G40U	< 1e-05 s⁻¹				
G43U C50G U54G A64U C71U	7.77e-05 ± 3e-05 s⁻¹		0.00156 ± 0.00062 s⁻¹		
G37U A52U	< 1e-05 s⁻¹			< 1e-05 s⁻¹	< 1e-05 s⁻¹
A6C C34A C58A	< 1e-05 s⁻¹		< 1e-05 s⁻¹		
A39G A48U C58G	< 1e-05 s⁻¹		< 1e-05 s⁻¹		
G35C A48C	< 1e-05 s⁻¹	< 1e-05 s⁻¹	< 1e-05 s⁻¹	< 1e-05 s⁻¹	< 1e-05 s⁻¹
G7U A14U	< 1e-05 s⁻¹	< 1e-05 s⁻¹	< 1e-05 s⁻¹	< 1e-05 s⁻¹	
C34A C68U	< 1e-05 s⁻¹	< 1e-05 s⁻¹	< 1e-05 s⁻¹	< 1e-05 s⁻¹	< 1e-05 s⁻¹
G63C A64U	< 1e-05 s⁻¹		< 1e-05 s⁻¹	< 1e-05 s⁻¹	< 1e-05 s⁻¹
G13U G51U	< 1e-05 s⁻¹	< 1e-05 s⁻¹	< 1e-05 s⁻¹		< 1e-05 s⁻¹
G7C G51A U56A C67G C68A	0.000619 ± 0.0002 s⁻¹		7.59e-05 ± 1.5e-05 s⁻¹		
G29C U65G C67U	< 1e-05 s⁻¹		0.000105 ± 3e-05 s⁻¹		
A6C G51A	< 1e-05 s⁻¹	< 1e-05 s⁻¹	< 1e-05 s⁻¹		< 1e-05 s⁻¹
G44C C67A	0.000178 ± 2.3e-05 s⁻¹	0.00032 ± 9e-05 s⁻¹	0.00668 ± 0.0019 s⁻¹	0.00196 ± 0.00037 s⁻¹	0.00486 ± 0.0014 s⁻¹
G7U C58G C68G	0.000149 ± 4.5e-05 s⁻¹	0.000633 ± 0.00028 s⁻¹	0.000116 ± 2.5e-05 s⁻¹	0.00042 ± 0.00015 s⁻¹	0.00158 ± 0.00066 s⁻¹
A12G C61A C70U	< 1e-05 s⁻¹		< 1e-05 s⁻¹		
G7U U65C	< 1e-05 s⁻¹	< 1e-05 s⁻¹	< 1e-05 s⁻¹	< 1e-05 s⁻¹	< 1e-05 s⁻¹
G13U A33C	< 1e-05 s⁻¹	< 1e-05 s⁻¹		< 1e-05 s⁻¹	< 1e-05 s⁻¹
A6C C8U C68A C70A	< 1e-05 s⁻¹				
G40C A48C	< 1e-05 s⁻¹	< 1e-05 s⁻¹		< 1e-05 s⁻¹	
G35C C61G	< 1e-05 s⁻¹	< 1e-05 s⁻¹		< 1e-05 s⁻¹	
A12G C58U C61U	< 1e-05 s⁻¹				
A15G A48U U57C	< 1e-05 s⁻¹	< 1e-05 s⁻¹	< 1e-05 s⁻¹		< 1e-05 s⁻¹
A14U A36G C50U C61A	< 1e-05 s⁻¹				

Variant	self-cleavage kobs at 40 uM GlcN6P (glucosamine-6-phosphate [1])	self-cleavage kobs at 160 uM GlcN6P (glucosamine-6-phosphate [2])	self-cleavage kobs at 10000 uM GlcN6P (glucosamine-6-phosphate [3])	self-cleavage kobs at 640 uM GlcN6P (glucosamine-6-phosphate [4])	self-cleavage kobs at 2500 uM GlcN6P (glucosamine-6-phosphate [5])
G32U A33C U45G U65A	< 1e-05 s⁻¹		< 1e-05 s⁻¹	< 1e-05 s⁻¹	< 1e-05 s⁻¹
A48C C68A	< 1e-05 s⁻¹		< 1e-05 s⁻¹		
A53G C61G	< 1e-05 s⁻¹				
A33G G40U G43A U49A C58U	< 1e-05 s⁻¹		< 1e-05 s⁻¹		
C16U U31C A36G G41C	< 1e-05 s⁻¹		< 1e-05 s⁻¹		< 1e-05 s⁻¹
C16U C50G G62A C67G	6.99e-05 ± 1.9e-05 s⁻¹		9.28e-05 ± 1.6e-05 s⁻¹	0.000337 ± 7.8e-05 s⁻¹	
A6G U57A	< 1e-05 s⁻¹	< 1e-05 s⁻¹		< 1e-05 s⁻¹	
U55G C58A G60C C61G C67A	< 1e-05 s⁻¹				
G32C U56C	< 1e-05 s⁻¹	< 1e-05 s⁻¹		< 1e-05 s⁻¹	
C16U G32U G40A C71G	< 1e-05 s⁻¹		0.0002 ± 2.8e-05 s⁻¹		
G37A C50G C70G	4.31e-05 ± 2.1e-05 s⁻¹				
C8U G9A A15C A36G U49C U57G	< 1e-05 s⁻¹				
A6U G63U	< 1e-05 s⁻¹	< 1e-05 s⁻¹		< 1e-05 s⁻¹	< 1e-05 s⁻¹
G29C U30C G38C G44A A48C U55G	< 1e-05 s⁻¹		< 1e-05 s⁻¹		< 1e-05 s⁻¹
A33U A36C G59C	< 1e-05 s⁻¹		< 1e-05 s⁻¹		
U31A A36U	< 1e-05 s⁻¹	< 1e-05 s⁻¹	< 1e-05 s⁻¹	< 1e-05 s⁻¹	< 1e-05 s⁻¹
G7U C8A	< 1e-05 s⁻¹	< 1e-05 s⁻¹			< 1e-05 s⁻¹
A33G C61U	< 1e-05 s⁻¹		< 1e-05 s⁻¹		
A42G U45C	5.93e-05 ± 2.9e-05 s⁻¹				
C34A G35U G37A U49A U56C	< 1e-05 s⁻¹		< 1e-05 s⁻¹	< 1e-05 s⁻¹	< 1e-05 s⁻¹
G43A G44A G51A C58A	< 1e-05 s⁻¹		< 1e-05 s⁻¹		
G7C C11G G51A	< 1e-05 s⁻¹		< 1e-05 s⁻¹		
A33C C58A	< 1e-05 s⁻¹			< 1e-05 s⁻¹	
G29U A42U	< 1e-05 s⁻¹		2.15e-05 ± 1.1e-05 s⁻¹	< 1e-05 s⁻¹	
C16A A39U G51U	< 1e-05 s⁻¹				
A15C A52C C70U C71G	< 1e-05 s⁻¹				

Variant	self-cleavage kobs at 40 uM GlcN6P (glucosamine-6-phosphate [1])	self-cleavage kobs at 160 uM GlcN6P (glucosamine-6-phosphate [2])	self-cleavage kobs at 10000 uM GlcN6P (glucosamine-6-phosphate [3])	self-cleavage kobs at 640 uM GlcN6P (glucosamine-6-phosphate [4])	self-cleavage kobs at 2500 uM GlcN6P (glucosamine-6-phosphate [5])
A33U A39U G44C G63C C67G	< 1e-05 s⁻¹		< 1e-05 s⁻¹		
A14G C50G C71U	0.000639 ± 0.00021 s⁻¹	0.000245 ± 7.3e-05 s⁻¹	4.82e-05 ± 2e-05 s⁻¹	0.00131 ± 0.00027 s⁻¹	
C16G G40U C58G	< 1e-05 s⁻¹				< 1e-05 s⁻¹
A52C G60U U69C	< 1e-05 s⁻¹				
U31C G51A	< 1e-05 s⁻¹		< 1e-05 s⁻¹	< 1e-05 s⁻¹	< 1e-05 s⁻¹
C8G G32U G38C G51U	< 1e-05 s⁻¹				
G13C G40U A53U G59U	< 1e-05 s⁻¹		< 1e-05 s⁻¹		
U46G A48C	< 1e-05 s⁻¹	< 1e-05 s⁻¹		< 1e-05 s⁻¹	
C10A U47G G63A	< 1e-05 s⁻¹		< 1e-05 s⁻¹		
A33G G51U	< 1e-05 s⁻¹		< 1e-05 s⁻¹	< 1e-05 s⁻¹	
A14C G32A A42U U54G	< 1e-05 s⁻¹				
G40A G60A	< 1e-05 s⁻¹	< 1e-05 s⁻¹		< 1e-05 s⁻¹	
U30C U45G	< 1e-05 s⁻¹	< 1e-05 s⁻¹			
A12C A14C C70U	< 1e-05 s⁻¹		8.48e-05 ± 1.8e-05 s⁻¹		9.06e-05 ± 1.4e-05 s⁻¹
A52U A64G U69A	< 1e-05 s⁻¹				
A14C A33U A53U U56G	< 1e-05 s⁻¹		2.92e-05 ± 1.4e-05 s⁻¹		
G9A A14G G32U U65A	< 1e-05 s⁻¹		< 1e-05 s⁻¹		< 1e-05 s⁻¹
A42C G59C	< 1e-05 s⁻¹	< 1e-05 s⁻¹	< 1e-05 s⁻¹	< 1e-05 s⁻¹	< 1e-05 s⁻¹
A33U A42C U47G U54A	< 1e-05 s⁻¹		< 1e-05 s⁻¹	< 1e-05 s⁻¹	< 1e-05 s⁻¹
A14C U30G C50A G60U G63U	< 1e-05 s⁻¹		< 1e-05 s⁻¹		
A6C C16A G29A G63C C67A	< 1e-05 s⁻¹				
A64C C68G C70G	< 1e-05 s⁻¹			< 1e-05 s⁻¹	< 1e-05 s⁻¹
A14C U31C A39U	2.48e-05 ± 1.1e-05 s⁻¹		0.00132 ± 0.00031 s⁻¹		

Reference: the supplement of paper PMC7125110
